According to PMC7401805, “Tissue specific requirement of Drosophila Rcd4 for centriole duplication and ciliogenesis” (The Journal of Cell Biology, 2020):

T1: MBP-tagged Ana3-C1 fragment (amino acids 1195-1977) (Drosophila melanogaster, UniProt A1Z8X3 1195-1977)
T1 construct: Vector pKM596; also called MBP::Ana3 C1; Ana3-C terminal 1; source: E. coli Rosetta BL21(DE3), purified; not shown: MBP, N-terminal, kept
T1 sequence (looked up): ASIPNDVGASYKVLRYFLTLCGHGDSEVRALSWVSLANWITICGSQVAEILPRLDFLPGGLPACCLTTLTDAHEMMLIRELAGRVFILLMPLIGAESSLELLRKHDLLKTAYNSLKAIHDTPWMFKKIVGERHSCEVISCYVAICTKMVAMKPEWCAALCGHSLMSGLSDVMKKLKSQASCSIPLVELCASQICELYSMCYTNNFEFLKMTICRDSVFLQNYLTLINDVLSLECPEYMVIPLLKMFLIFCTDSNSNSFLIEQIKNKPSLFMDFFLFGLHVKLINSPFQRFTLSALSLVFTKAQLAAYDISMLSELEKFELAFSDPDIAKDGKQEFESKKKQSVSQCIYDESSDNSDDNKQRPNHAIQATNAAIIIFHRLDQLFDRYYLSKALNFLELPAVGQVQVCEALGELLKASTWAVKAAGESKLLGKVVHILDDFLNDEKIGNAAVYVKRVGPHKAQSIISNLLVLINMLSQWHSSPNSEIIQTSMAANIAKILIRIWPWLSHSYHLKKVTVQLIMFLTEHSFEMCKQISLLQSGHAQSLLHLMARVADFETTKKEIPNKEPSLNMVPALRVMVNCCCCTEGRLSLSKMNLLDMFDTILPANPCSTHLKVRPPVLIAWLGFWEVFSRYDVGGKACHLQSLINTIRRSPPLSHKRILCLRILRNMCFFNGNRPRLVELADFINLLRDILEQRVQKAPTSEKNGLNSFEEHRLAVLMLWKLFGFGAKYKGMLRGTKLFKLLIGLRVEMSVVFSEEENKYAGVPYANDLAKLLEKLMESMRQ

B1: GST-tagged Rcd4 (natural protein, Drosophila melanogaster, UniProt Q9VLM6 1-199, looked up)
chain: MPHKRRNRVHANQRNFTARRVSVAKLSSAPPNVLVESCNGSHADNSSPDSPKAKEGAMTNGKNPEIKLAVPKCNTTVRKQNEAHIISNIKLDMNLNKDSNFIAPQITKKMNFAPNRVVFGVLVPLNVNDSVLVPHNRKPDALKHTSKESESCKAISEPQLADYAEKVDPMIMAVKEPVLHLDWEPGPFDFFGAYRRTYN
notes: Rcd4, Drosophila melanogaster; 199 amino acid protein; also called GST::Rcd4; GST-Rcd4; source: E. coli Rosetta BL21(DE3), purified on glutathione-sepharose 4B beads; not shown: GST, N-terminal, kept
B2: MBP-tagged Rcd4 (natural protein, Drosophila melanogaster, UniProt Q9VLM6 1-199, looked up)
chain: B1 chain
notes: Rcd4, Drosophila melanogaster; 199 amino acid protein; also called MBP::Rcd4; MBP-Rcd4; source: E. coli Rosetta BL21(DE3), purified; not shown: MBP, N-terminal, kept

Tests used:
[1] = target: T1, MBP-tagged Ana3-C1 fragment (amino …); test: pull-down; GST-Rcd4 held on glutathione-sepharose 4B beads, MBP-tagged Ana3 fragment added, 1 h at 4°C; 20 mM Tris pH 7.5, 200 mM NaCl, 1 mM DTT, 10% glycerol; SDS-PAGE (Coomassie) and anti-MBP Western blot; conditions: both partners purified
[2] = target: T2, GST-tagged full-length Ana3 (Drosophila melanogaster, UniProt A1Z8X3 1-1977); test: pull-down; full-length GST-Ana3 purified from S. cerevisiae incubated with MBP-Rcd4 purified from E. coli; GST::Ana3 purified, SDS-PAGE (Coomassie) and Western blot for MBP::Rcd4; conditions: both partners purified
T2 construct: Ana3, Drosophila melanogaster; also called GST::Ana3; GST-Ana3; source: S. cerevisiae (plasmid pMG1): coexpressed with 6xHis-Rcd4, in crude extract; also expressed alone and purified on glutathione beads

| Binder | binding result [1] | binding result [2] |
| --- | --- | --- |
| B1 | binds | – |
| B2 | – | binds |
